Four molecules from patent publication US20140356383A1 (published 2014) can be followed below.

In assay [1] the target is T1, human guanylyl cyclase C (GCC) (human, UniProt P25092 24-1073). Description: cell-based or functional assay.
The target in assay [2] is T1, human guanylyl cyclase C (GCC). The assay is described as follows: flow cytometry, 293 GCC #2 cells, 0.25 µg/ml. (In general: In flow cytometry, cells or beads pass a laser one at a time.)
Assay [3] shares this target. The assay is described as follows: flow cytometry, 293 GCC #2 cells, 0.004 µg/ml.
Assay [4] has the same target. Description: flow cytometry, 293 GCC #2 cells, 0.001 µg/ml.
For assay [5] the target is unchanged. Description: flow cytometry, 293 GCC #2 cells, 1 µg/ml.
Assay [6] has the same target. The assay is described as follows: flow cytometry, 293 GCC #2 cells, 0.016 µg/ml.
Assay [7] shares this target. The assay is described as follows: flow cytometry, 293 GCC #2 cells, 0.063 µg/ml.
For assay [8] the target is unchanged. Description: FACS with GCC-expressing cells (cell line not given); antibody concentration for half maximal binding.
The target of assay [9] is T2, TOK107-hIg (hGCC-ECD/hIgG1 Fc) (human).
T2 construct: Expressed in HEK293 cells; also called TOK107-hIgG; TOK107-Ig
The assay is described as follows: ELISA against TOK107-hIg; antibody concentration for half maximal binding.

For assay [10], the target named is T2, TOK107-hIg (hGCC-ECD/hIgG1 Fc). Description: SPR, BIACORE T100, 22 C; Prep A 5F9 immobilized on CM4 chip, GCC-ECD-Fc injected; 1:1 model; replicate C. On the technique in general: Surface plasmon resonance follows binding to a sensor surface in real time, without labels.
Assay [11] shares this target. The assay is described as follows: SPR, BIACORE T100, 22 C; Prep B (reference) 5F9 immobilized on CM4 chip, GCC-ECD-Fc injected; 1:1 model; replicate H.
Assay [12] shares this target. The assay is described as follows: SPR, BIACORE T100, 22 C; Prep A 5F9 immobilized on CM4 chip, GCC-ECD-Fc injected; 1:1 model; replicate B.
Assay [13] has the same target. The assay is described as follows: SPR, BIACORE T100, 22 C; Prep A 5F9 immobilized on CM4 chip, GCC-ECD-Fc injected; 1:1 model; replicate A.
Assay [14] shares this target. The assay is described as follows: SPR, BIACORE T100, 22 C; Prep A 5F9 immobilized on CM4 chip, GCC-ECD-Fc injected; 1:1 model; replicate D.
For assay [15] the target is unchanged. Description: SPR, BIACORE T100, 22 C; Prep B (reference) 5F9 immobilized on CM4 chip, GCC-ECD-Fc injected; 1:1 model; replicate G.
For assay [16] the target is unchanged. The assay is described as follows: SPR, BIACORE T100, 22 C; Prep B (reference) 5F9 immobilized on CM4 chip, GCC-ECD-Fc injected; 1:1 model; replicate F.
Assay [17] has the same target. Description: SPR, BIACORE T100, 22 C; Prep B (reference) 5F9 immobilized, GCC-ECD-Fc injected; average of replicates F-I (95% confidence interval in brackets).
Assay [18] has the same target. Description: SPR, BIACORE T100, 22 C; Prep A 5F9 immobilized on CM4 chip, GCC-ECD-Fc injected; 1:1 model; replicate E.
Assay [19] shares this target. The assay is described as follows: SPR, BIACORE T100, 22 C; Prep B (reference) 5F9 immobilized on CM4 chip, GCC-ECD-Fc injected; 1:1 model; replicate I.
Assay [20] shares this target. Description: SPR, BIACORE T100, 22 C; Prep A 5F9 immobilized, GCC-ECD-Fc injected; average of replicates A-E (95% confidence interval in brackets).

T2 sequence (chain, as listed by the source limits assumed): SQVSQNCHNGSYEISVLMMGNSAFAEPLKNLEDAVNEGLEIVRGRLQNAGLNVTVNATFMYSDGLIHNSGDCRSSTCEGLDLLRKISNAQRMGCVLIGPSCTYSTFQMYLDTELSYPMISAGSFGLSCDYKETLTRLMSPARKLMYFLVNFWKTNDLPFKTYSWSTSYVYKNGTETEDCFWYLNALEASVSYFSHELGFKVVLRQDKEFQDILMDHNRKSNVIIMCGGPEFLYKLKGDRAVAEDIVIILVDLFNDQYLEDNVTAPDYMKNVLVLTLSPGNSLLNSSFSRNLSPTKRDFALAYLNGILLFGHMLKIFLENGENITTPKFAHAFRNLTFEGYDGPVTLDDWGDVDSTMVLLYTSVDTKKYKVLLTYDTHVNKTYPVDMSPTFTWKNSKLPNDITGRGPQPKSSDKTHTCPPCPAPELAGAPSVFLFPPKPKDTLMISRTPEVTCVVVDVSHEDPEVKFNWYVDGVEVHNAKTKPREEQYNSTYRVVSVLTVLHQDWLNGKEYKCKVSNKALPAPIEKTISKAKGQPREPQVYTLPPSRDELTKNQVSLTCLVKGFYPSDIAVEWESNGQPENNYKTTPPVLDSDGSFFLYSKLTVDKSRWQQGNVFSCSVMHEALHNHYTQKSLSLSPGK
T1 sequence (P25092 24-1073 limits assumed): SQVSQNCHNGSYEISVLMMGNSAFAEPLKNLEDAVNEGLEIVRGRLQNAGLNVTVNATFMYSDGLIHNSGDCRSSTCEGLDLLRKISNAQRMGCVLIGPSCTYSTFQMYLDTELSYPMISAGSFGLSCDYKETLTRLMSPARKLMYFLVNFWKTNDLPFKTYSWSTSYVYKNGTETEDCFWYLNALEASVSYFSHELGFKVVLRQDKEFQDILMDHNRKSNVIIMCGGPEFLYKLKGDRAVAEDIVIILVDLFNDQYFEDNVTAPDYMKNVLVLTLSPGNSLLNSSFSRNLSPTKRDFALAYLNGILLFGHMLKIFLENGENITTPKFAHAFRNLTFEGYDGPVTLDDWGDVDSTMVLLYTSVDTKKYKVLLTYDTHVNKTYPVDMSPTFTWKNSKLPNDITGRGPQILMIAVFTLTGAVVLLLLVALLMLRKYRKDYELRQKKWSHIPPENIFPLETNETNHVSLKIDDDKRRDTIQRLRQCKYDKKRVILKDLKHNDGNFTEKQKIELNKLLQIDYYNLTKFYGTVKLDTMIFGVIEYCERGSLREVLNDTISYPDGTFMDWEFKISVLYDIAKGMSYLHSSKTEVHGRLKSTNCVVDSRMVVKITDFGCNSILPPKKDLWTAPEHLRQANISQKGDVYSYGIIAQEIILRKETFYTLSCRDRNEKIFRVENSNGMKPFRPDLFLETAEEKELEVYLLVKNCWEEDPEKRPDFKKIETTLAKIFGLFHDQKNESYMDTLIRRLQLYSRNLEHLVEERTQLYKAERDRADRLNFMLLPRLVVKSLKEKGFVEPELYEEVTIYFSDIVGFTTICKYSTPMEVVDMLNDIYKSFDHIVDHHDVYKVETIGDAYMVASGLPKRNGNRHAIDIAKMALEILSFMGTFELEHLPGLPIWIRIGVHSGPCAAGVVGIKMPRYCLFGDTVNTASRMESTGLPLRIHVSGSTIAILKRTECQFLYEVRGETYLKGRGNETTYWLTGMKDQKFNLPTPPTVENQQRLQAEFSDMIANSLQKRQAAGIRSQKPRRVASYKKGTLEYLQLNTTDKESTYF

B1: 5F9 vcMMAE immunoconjugate (antibody, V domains shown)
VH: QVQLQQWGAGLLKPSETLSLTCAVFGGSFSGYYWSWIRQPPGKGLEWIGEINHRGNTNDNPSLKSRVTISVDTSKNQFALKLSSVTAADTAVYYCARERGYTYGNFDHWGQGTLVTVSS
VL: EIVMTQSPATLSVSPGERATLSCRASQSVSRNLAWYQQKPGQAPRLLIYGASTRATGIPARFSGSGSGTEFTLTIGSLQSEDFAVYYCQQYKTWPRTFGQGTNVEIK
modifications: mc-vc-MMAE linked to cysteines freed by partial reduction of interchain disulfides (outside this variable domain); average drug loading about 4 (3.6 in the described preparation)
notes: also called MLN0264; ML0264
For the molecule B1, in assay [1], the “LD 50 (nM), direct cytotoxicity, CT 26 GCC #2.5 cells” value (from here on “LD 50 (nM) … CT 26 GCC #2.5 cells”) was greater than 500 nM; the “LD 50 (nM), direct cytotoxicity, CT 26 GCC #32 cells” value (from here on “LD 50 (nM) … CT 26 GCC #32 cells”) was determined as 267 nM; the “LD 50 (nM), direct cytotoxicity, HT 29 GCC #2 cells” value (“LD 50 (nM) … HT 29 GCC #2 cells” for short) stood at 24.1 nM; the “LD 50 (nM), direct cytotoxicity, HT 29 GCC #5 cells” value (“LD 50 (nM) … HT 29 GCC #5 cells” below) turned out to be 654 nM. In assay [1], the “LD 50 (nM), direct cytotoxicity, HT 29 GCC #18 cells” value (shortened to “LD 50 (nM) … HT 29 GCC #18 cells”) worked out at 555 nM and the “LD 50 (nM), direct cytotoxicity, HT29 GCC#5 cells” value was 0.59 nM. In [2], the MFI turned out to be 7300. This molecule had an MFI in assay [3] of 696. Moreover, the MFI in [4] amounted to 445. Also, the MFI in assay [5] came to 7420. For the same molecule, in [6], the MFI was found to be 1790. The same molecule displayed an MFI in assay [7] of 4850.

B2: 5F9-vc-MMAF (antibody, V domains shown)
VH: QVQLQQWGAGLLKPSETLSLTCAVFGGSFSGYYWSWIRQPPGKGLEWIGEINHRGNTNDNPSLKSRVTISVDTSKNQFALKLSSVTAADTAVYYCARERGYTYGNFDHWGQGTLVTVSS
VL: EIVMTQSPATLSVSPGERATLSCRASQSVSRNLAWYQQKPGQAPRLLIYGASTRATGIPARFSGSGSGTEFTLTIGSLQSEDFAVYYCQQYKTWPRTFGQGTNVEIK
modifications: mc-vc-MMAF linked to cysteines freed by partial reduction of interchain disulfides (outside this variable domain); average drug loading about four
With B2, in assay [1], the “LD 50 (nM) … CT 26 GCC #2.5 cells” value is greater than 10 nM. For the same molecule, the “LD 50 (nM) … CT 26 GCC #32 cells” value in assay [1] was found to be 0.004 nM. The “LD 50 (nM) … HT 29 GCC #2 cells” value in [1] came out at 0.127 nM. Besides, in assay [1], the “LD 50 (nM) … HT 29 GCC #5 cells” value worked out at 563 nM. The “LD 50 (nM) … HT 29 GCC #18 cells” value in [1] was greater than 10000 nM. For the same molecule, the MFI came out at 7560 in assay [2]; 707 in [3]; 440 in assay [4]; 7780 in assay [5]; 1500 in [6]; 4830 in assay [7].

B3: anti-GCC human monoclonal antibody 5F9 (antibody, V domains shown)
VH: QVQLQQWGAGLLKPSETLSLTCAVFGGSFSGYYWSWIRQPPGKGLEWIGEINHRGNTNDNPSLKSRVTISVDTSKNQFALKLSSVTAADTAVYYCARERGYTYGNFDHWGQGTLVTVSS
VL: EIVMTQSPATLSVSPGERATLSCRASQSVSRNLAWYQQKPGQAPRLLIYGASTRATGIPARFSGSGSGTEFTLTIGSLQSEDFAVYYCQQYKTWPRTFGQGTNVEIK
notes: also called mAb 5F9; MAb 5F9 (Prep A)
As to B3, the EC50 was 1.24 nM in assay [8] and 36.5 nM in [9]. The MFI came to 7820 in [2]; 937 in assay [3]; 500 in [4]; 8030 in assay [5]; 2460 in [6]; 6620 in [7]. Further, the Kd came out at 0.201 nM in assay [10]; 0.105 nM in assay [11]; 0.0917 nM in assay [12]; 0.112 nM in assay [13]; 0.091 nM in assay [14]; 0.103 nM in assay [15]. Moreover, the Kd in [16] stood at 0.0789 nM; in [17], 0.103 nM; in assay [18], 0.184 nM; in [19], 0.127 nM; in assay [20] it was 0.136 nM. The off-rate constant (koff) in [10] stood at 2.15e-05 s⁻¹; in assay [11], 9.57e-06 s⁻¹; in assay [12], 1.1e-05 s⁻¹; in assay [13], 1.19e-05 s⁻¹; in assay [14], 1.11e-05 s⁻¹; in assay [15] it was 1.24e-05 s⁻¹. The koff in assay [16] stood at 7.64e-06 s⁻¹; in assay [17], 1.13e-05 s⁻¹; in assay [18], 1.77e-05 s⁻¹; in assay [19] it was 1.54e-05 s⁻¹; in assay [20], 1.46e-05 s⁻¹. Further, the kon was found to be 107000 M⁻¹ s⁻¹ in assay [10]; 90900 M⁻¹ s⁻¹ in assay [11]; 120000 M⁻¹ s⁻¹ in [12]; 106000 M⁻¹ s⁻¹ in assay [13]; 122000 M⁻¹ s⁻¹ in assay [14]; 120000 M⁻¹ s⁻¹ in assay [15]. The kon in assay [16] was found to be 96800 M⁻¹ s⁻¹; in assay [17], 107000 M⁻¹ s⁻¹; in assay [18], 96400 M⁻¹ s⁻¹; in [19], 121000 M⁻¹ s⁻¹; in assay [20], 110000 M⁻¹ s⁻¹.

B4: 5F9-mc-MMAF (antibody, V domains shown)
VH: QVQLQQWGAGLLKPSETLSLTCAVFGGSFSGYYWSWIRQPPGKGLEWIGEINHRGNTNDNPSLKSRVTISVDTSKNQFALKLSSVTAADTAVYYCARERGYTYGNFDHWGQGTLVTVSS
VL: EIVMTQSPATLSVSPGERATLSCRASQSVSRNLAWYQQKPGQAPRLLIYGASTRATGIPARFSGSGSGTEFTLTIGSLQSEDFAVYYCQQYKTWPRTFGQGTNVEIK
modifications: mc-MMAF (non-cleavable linker) linked to cysteines freed by partial reduction of interchain disulfides (outside this variable domain); average drug loading about four
For the molecule B4, in assay [1], the “LD 50 (nM) … CT 26 GCC #2.5 cells” value was greater than 10 nM; the “LD 50 (nM) … CT 26 GCC #32 cells” value worked out at 0.064 nM; the “LD 50 (nM) … HT 29 GCC #2 cells” value was 3.1 nM; the “LD 50 (nM) … HT 29 GCC #5 cells” value is greater than 10000 nM. Besides, in assay [1], the “LD 50 (nM) … HT 29 GCC #18 cells” value was greater than 10000 nM and the “LD 50 (nM), direct cytotoxicity, HT29 GCC#5 cells” value was greater than 10 nM. Moreover, the MFI in assay [2] was determined as 7400. The molecule further returned an MFI in assay [3] of 776. Besides, the MFI in assay [4] is 483. In [5], this molecule displayed an MFI of 7580. In addition, the MFI in assay [6] came out at 2110. The molecule also returned an MFI in assay [7] of 5350.

The term EC50 denotes the concentration needed to bring the measured effect to its halfway point. Lower therefore signals an effect from little substance. The term Kd denotes the concentration at which binding is half-saturated. The koff is the rate constant with which the complex falls apart. Low values mean slow dissociation, high ones fast dissociation. Usually kon stands for a measure of how fast the partners come together. Low readings indicate slower complex formation, high ones faster complex formation.
